Test results published in patent US20200140504A1 (GENESEN, published 2020).
Primed or numbered codes have the meaning given here. Ends that are not written are not given here. FITC′ = fluorescein isothiocyanate

Legend:
[1] = molecular target: T1, MyD88 (myeloid differentiation 88), in THP1 human monocytes (human, UniProt Q99836 1-296); assay: confocal immunofluorescence, THP1 cells treated with TIP1-FITC and LPS
T1 construct: whole, on cells; Endogenous intracellular protein seen by immunofluorescence; Species follows from the THP1 human cells
T1 sequence (Q99836 whole entry): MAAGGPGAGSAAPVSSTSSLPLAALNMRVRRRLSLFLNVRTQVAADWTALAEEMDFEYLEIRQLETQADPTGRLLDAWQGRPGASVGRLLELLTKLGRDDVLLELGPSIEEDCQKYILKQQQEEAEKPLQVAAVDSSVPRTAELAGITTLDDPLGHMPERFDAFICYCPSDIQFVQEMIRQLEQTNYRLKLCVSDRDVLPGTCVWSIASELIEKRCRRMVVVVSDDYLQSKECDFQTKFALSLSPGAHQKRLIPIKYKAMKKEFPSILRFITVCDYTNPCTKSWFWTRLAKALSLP
Description: (§1) RAW 264.7 cells and THP1 cells were dispensed into 24-well plates to a cell number of 2×10⁵ cells/well, and then grown in an incubator overnight. Subsequently, combined treatment with TIP1 and LPS was performed. After 24 hours, the RAW 264.7 cells and the THP1 cells were fixed with 3.7% formaldehyde (Sigma-Aldrich Co. LLC) for 15 minutes, and immersed into 0.2% Triton X-100 (AMRESCO, Solon, Ohio, USA) for 15 minutes. Then, washing with PBS was performed three times and blocking with 2% BSA solution was performed. […] Subsequently, the cells were stained at room temperature for 15 minutes using 5 μM Hoechst 33258 (Sigma-Aldrich Co.), and the number of the fluorescently stained cells was counted using a confocal laser scanning microscope (LSM-700, Carl Zeiss MicroImaging GmbH). The images were analyzed using Zen 2009 software.
(§2) In addition, in order to identify binding of TIP1 to TLR4, TIP1-FITC was prepared by binding fluorescein isothiocyanate (FITC) to the N-terminus of TIP1. The THP1 cells in Example 1-2 were subjected to treatment with TIP1 (TIP1-FITC) or to combined treatment with LPS and TIP1, and then the number of fluorescently stained cells were counted using immunofluorescent staining and a confocal microscope according to the method described in Examples 2-4, thereby analyzing interactions between the proteins. […]

[2] = molecular target: T2, Toll-like receptor 4 (TLR4), human (human, UniProt O00206 24-839); assay: confocal laser scanning microscopy, THP1 cells treated with TIP1-FITC with or without LPS
T2 construct: whole, on cells; also called hTLR4; human TLR4
T2 sequence (O00206 24-839): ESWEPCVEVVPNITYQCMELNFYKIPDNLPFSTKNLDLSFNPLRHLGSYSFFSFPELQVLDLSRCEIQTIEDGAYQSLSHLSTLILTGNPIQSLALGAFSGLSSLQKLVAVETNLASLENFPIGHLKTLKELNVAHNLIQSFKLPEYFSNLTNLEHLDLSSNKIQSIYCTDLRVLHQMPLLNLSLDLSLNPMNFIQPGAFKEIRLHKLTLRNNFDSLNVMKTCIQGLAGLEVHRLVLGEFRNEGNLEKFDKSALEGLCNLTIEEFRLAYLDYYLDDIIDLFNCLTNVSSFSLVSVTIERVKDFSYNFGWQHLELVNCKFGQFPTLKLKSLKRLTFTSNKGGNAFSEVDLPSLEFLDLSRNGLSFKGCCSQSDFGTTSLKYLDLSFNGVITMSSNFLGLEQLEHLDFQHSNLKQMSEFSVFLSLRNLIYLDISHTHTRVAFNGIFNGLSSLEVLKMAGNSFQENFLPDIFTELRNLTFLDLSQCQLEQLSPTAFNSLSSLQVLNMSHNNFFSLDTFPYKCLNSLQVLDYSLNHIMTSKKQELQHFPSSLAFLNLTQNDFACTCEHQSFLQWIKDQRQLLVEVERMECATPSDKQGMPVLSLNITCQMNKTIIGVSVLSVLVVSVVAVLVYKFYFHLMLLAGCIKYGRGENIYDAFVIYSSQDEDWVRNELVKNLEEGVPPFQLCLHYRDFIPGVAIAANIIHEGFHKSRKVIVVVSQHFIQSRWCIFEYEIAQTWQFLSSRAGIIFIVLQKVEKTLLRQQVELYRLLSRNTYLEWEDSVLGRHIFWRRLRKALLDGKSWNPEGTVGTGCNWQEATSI
Description: as §1, §2

[3] = molecular target: T2, Toll-like receptor 4 (TLR4), human; assay: conclusion of Experimental Example 8 (SPR on TIR-domain peptides, data not given; confocal microscopy)

B1: TIP1-FITC (peptide)
peptide: {FITC′}-RQIKIWFQNRRMKWKKSHCRVLLI
notes: used for confocal microscopy; also called TIP1 (TIP1-FITC)
binding result [1]: binds
binding result [2]: binds

RQIKIWFQNRRMKWKKSHCRVLLI [TIP1 (Toll-like receptor inhibitory peptide 1)]
binding result [3]: binds
